Assay [1] has as its target T1, Matrix metalloproteinase-1 (MMP-1) enzyme (Homo sapiens, UniProt P03956).
T1 construct: purchased Enzo
T1 sequence (P03956 100-269 limits assumed): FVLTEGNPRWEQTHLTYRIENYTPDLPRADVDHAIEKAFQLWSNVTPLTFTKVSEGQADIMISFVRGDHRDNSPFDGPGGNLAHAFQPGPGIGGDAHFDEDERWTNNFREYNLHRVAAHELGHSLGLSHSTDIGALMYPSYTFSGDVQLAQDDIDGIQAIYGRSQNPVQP
Briefly: MMP-1 enzyme activity inhibition in vitro (MMP-1 Fluorometric Drug Discovery Kit). It counts as biochemical. The settings on record: for inhibition of MMP-1 enzyme activity compared to the group treated with the only MMP-1 enzyme: 10 μM; for significant effect of inhibiting MMP-1 activity: FIG. 5A. The protocol:
MMP-1 Fluorometric Drug Discovery Kit manufactured by Enzo company was used to evaluate an ability to inhibit Matrix metalloproteinase-1 (MMP-1) enzyme activity in the peptide synthesized in Example 3. N-Isobutyl-N-(4-methoxyphenylsulfonyl) glycyl hydroxamic acid (NNGH) which is known to inhibit MMP-1 activity was used as a positive control group, and NNGH was treated at a concentration of 0.65 μM. […] The substrate was added to the reaction mixture, fluorescence thereof was measured at Ex/Em=540/590 nm, and the ability to inhibit MMP-1 activity was evaluated according to the following Equation 2. The results of the ability of inhibiting MMP-1 activity are illustrated in FIG. 5A. Ability to inhibit MMP-1activity(%)=Fluorescence intensity of sample-added group/Fluorescence intensity of non-treated group×100 [Equation 2]

The subject of the next assay is MMP-1 expression. Briefly: Inhibition of UVB-induced MMP-1 expression in human dermal fibroblasts (Western blot). It counts as cell-based. The settings on record: 10 μM, 20 mJ/cm^2 UVB. The protocol: Then, ultraviolet ray B was irradiated with 20 mJ/cm^2 using Vilber Lourmat (BioLink Crosslinker, France), cultured for 24 hours, and then cell proteins were recovered. At this time, the medium was removed before ultraviolet irradiation, and then washed with phosphate buffered saline (PBS) solution to remove serum components in the medium and then irradiated with ultraviolet ray B. The cells were washed twice with PBS solution to recover the proteins, and then the cells adhered to the bottom were recovered using a lysis buffer and centrifuged at 14,000 rpm for 10 minutes. After each supernatant was recovered, the protein concentration of each cell supernatant was quantified according to the method of use with a protein assay kit (Bio-Rad, USA) using bovine serum albumin (BSA) as the reference material. About […] protein from each of the protein extracts was denatured and separated by 8% gel sodium dodecyl sulphate-polyacrylamide gel electrophoresis (SDS-PAGE) and transferred to a polyvinylidene fluoride (PVDF) membrane at 120 mA for 2 hours. […]
For orientation: A western blot detects proteins with antibodies after separation by electrophoresis.

GFGGF [2n7-4]: in assay [1], the “inhibition of MMP-1 enzyme activity compared to the group treated with the only MMP-1 enzyme” value is recorded as “inhibited the activity of MMP-1 enzyme” and the “significant effect of inhibiting MMP-1 activity” value is “significant effect of inhibiting MMP-1 activity”.

Regarding IQPSPV [KP7-2], in assay [1], the “inhibition of MMP-1 enzyme activity compared to the group treated with the only MMP-1 enzyme” value is “inhibited the activity of MMP-1 enzyme” and the “significant effect of inhibiting MMP-1 activity” value was “significant effect of inhibiting MMP-1 activity”.

As to GLGSR [2-2], in assay [1], the “inhibition of MMP-1 enzyme activity compared to the group treated with the only MMP-1 enzyme” value is recorded as “inhibited the activity of MMP-1 enzyme” and the “significant effect of inhibiting MMP-1 activity” value is “significant effect of inhibiting MMP-1 activity”. In the assay with MMP-1 expression, the “inhibition of MMP-1 expression compared to the group treated with the only UVB” value is listed as approximately 35%.

Take FPQN [2n7-5]: in assay [1], the “inhibition of MMP-1 enzyme activity compared to the group treated with the only MMP-1 enzyme” value is on record as “inhibited the activity of MMP-1 enzyme”.

For the substance GPTPL [2-1], in assay [1], the “inhibition of MMP-1 enzyme activity compared to the group treated with the only MMP-1 enzyme” value is “inhibited the activity of MMP-1 enzyme” and the “significant effect of inhibiting MMP-1 activity” value is given as “significant effect of inhibiting MMP-1 activity”. For the same substance, in the assay with MMP-1 expression, the “inhibition of MMP-1 expression compared to the group treated with the only UVB” value is “about 24%”.

For PISS [2n7-2], in assay [1], the “inhibition of MMP-1 enzyme activity compared to the group treated with the only MMP-1 enzyme” value is “inhibited the activity of MMP-1 enzyme”.

Turning to GLSGL [KP7-1], in assay [1], the “inhibition of MMP-1 enzyme activity compared to the group treated with the only MMP-1 enzyme” value is reported as “inhibited the activity of MMP-1 enzyme” and the “significant effect of inhibiting MMP-1 activity” value is given as “significant effect of inhibiting MMP-1 activity”.

For the origin of these results see patent US10945940B2, “Method of preparing ultra-low molecular weight keratin peptide” (KYUNGPOOK NATIONAL UNIVERSITY INDUSTRY-ACADEMIC COOPERATION …, priority 2015, dated 2021).
